According to patent US20250361544A1, “TYPE III-D CRISPR-CAS SYSTEM AND USES THEREOF” (BOARD OF REGENTS, THE UNIVERSITY OF TEXAS SYSTEM, published 2025):
One block for each binder: values may come before it.

B3: Cas7-Cas5-Cas11 fusion subunit of the Synechocystis sp. PCC 6803 Type III-Dv complex (other)
chain: MRGIEITITMQSDWHVGTGMGRGELDSVVQRDGDNLPYIPGKTLTGILRDSCEQVALGLDNGQTRGLWHGWINFIFGDQPALAQGAIEPEPRPALIAIGSAHLDPKLKAAFQGKKQLQEAIAFMKPGVAIDAITGTAKKDFLRFEEVVRLGAKLTAEVELNLPDNLSETNKKVIAGILASGAKLTERLGGKRRRGNGRCELKFSGYSDQQIQWLKDNYQSVDQPPKYQQNKLQSAGDNPEQQPPWHIIPLTIKTLSPVVLPARTVGNVVECLDYIPGRYLLGYIHKTLGEYFDVSQAIAAGDLIITNATIKIDGKAGRATPFCLFGEKLDGGLGKGKGVYNRFQESEPDGIQLKGERGGYVGQFEQEQRNLPNTGKINSELFTHNTIQDDVQRPTSDVGGVYSYEAIIAGQTFVAELRLPDSLVKQITSKNKNWQAQLKATIRIGQSKKDQYGKIEVTSGNSADLPKPTGNNKTLSIWFLSDILLRGDRLNFNATPDDLKKYLENALDIKLKERSDNDLICIALRSQRTESWQVRWGLPRPSLVGWQAGSCLIYDIESGTVNAEKLQELMITGIGDRCTEGYGQIGFNDPLLSASLGKLTAKPKASNNQSQNSQSNPLPTNHPTQDYARLIEKAAWREAIQNKALALASSRAKREEILGIKIMGKDSQPTMTQLGGFRSVLKRLHSRNNRDIVTGYLTALEQVSNRKEKWSNTSQGLTKIRNLVTQENLIWNHLDIDFSPLTITQNGVNQLKSELWAEAVRTLVDAIIRGHKRDLEKAQENESNQQSQGAA
notes: Untagged, co-expressed from pPF2434 in E. coli; one copy in the complex; also called Cas7-5-11; Cas5-Cas7-Cas11

Assays:
[1] = target: Type III-Dv effector complex (Cas10, Cas7-Cas5-Cas11, Cas7-2x, Csx19, Cas7-insertion) (Synechocystis sp. PCC 6803); assay: structure; cryo-EM 2.5 A binary complex with 37-nt crRNA; settings: tags: N-terminal His6-TEV on Cas10
Procedure: (§1) Fully assembled Type III-D binary complex was diluted to a concentration of 0.3 mg/ml in SEC buffer before 2.5 μl of sample was added to a quantifoil 1.2/1.3 grid that was glow discharged for 1 minute. Sample was applied to the grid in an FEI Vitrobot MarkIV kept at 100% humidity and 4° C. before blotting for 5.5 seconds with a force of 0. For the ssRNA target-bound complex, non-self ssRNA was mixed with the binary complex with a 2:1 molar ratio of RNA:Binary complex in SEC buffer to a final protein concentration of 0.3 mg/mL. Grids of the target-bound complex were frozen identical to that of the binary complex. Both grids were loaded to an FEI Titan Krios (Sauer Structural Biology Lab, University of Texas at Austin) operating at 300 kV. Images were taken at a pixel size of 0.81 Å/pixel with a dose rate of 10.6 e⁻/pixel/s for 5 seconds using a Gatan K3 direct electron detector, giving a final dosage of 80.5 e⁻/Å². Data collection was automated using SerialEM using a defocus range of −1.2 to −2.2 μm.
(§2) To delineate the architecture of this Type III-Dv effector, we used cryo-EM to determine a 2.5-Å resolution structure of the complex containing the nt crRNA (FIG. 1e,f, FIG. 8). To gain preliminary insights, we generated initial models of each subunit using Alphafold 2. […]

[2] = target: T1, Cas10 subunit of the Synechocystis sp. PCC 6803 Type III-Dv CRISPR-Cas complex, with N-terminal His6 tag and … (Synechocystis sp. PCC 6803); assay: cryo-EM structure (summary of Example 1)
T1 construct: Whole gene amplified from Synechocystis genomic DNA and co-expressed in E. coli from pPF2434; The complex also holds a 37-nt crRNA; also called His6-TEV-Cas10; N-His6-tagged Cas10; not shown: TEV cleavage was inefficient, so
T1 chain: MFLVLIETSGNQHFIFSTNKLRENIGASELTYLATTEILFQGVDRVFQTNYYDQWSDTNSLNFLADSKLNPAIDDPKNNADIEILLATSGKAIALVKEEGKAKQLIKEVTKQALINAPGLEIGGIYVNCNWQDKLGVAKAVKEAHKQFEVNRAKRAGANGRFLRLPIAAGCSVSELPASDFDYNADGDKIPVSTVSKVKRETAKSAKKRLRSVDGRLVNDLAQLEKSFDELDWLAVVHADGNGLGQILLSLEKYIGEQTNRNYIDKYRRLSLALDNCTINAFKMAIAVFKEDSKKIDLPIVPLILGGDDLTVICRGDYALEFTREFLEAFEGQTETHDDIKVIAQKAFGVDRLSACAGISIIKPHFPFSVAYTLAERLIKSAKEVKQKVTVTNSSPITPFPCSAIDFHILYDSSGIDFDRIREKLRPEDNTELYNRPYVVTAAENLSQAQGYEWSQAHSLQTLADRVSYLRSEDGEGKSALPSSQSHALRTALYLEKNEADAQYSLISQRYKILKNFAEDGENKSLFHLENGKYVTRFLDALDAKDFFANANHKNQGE
Procedure: as §1

[3] = target: B3; assay: cryo-EM structure (summary of Example 1)
Procedure: as §1

[4] = target: T2, Cas7-Cas7 fusion subunit of the Synechocystis sp. PCC 6803 Type III-Dv complex (Synechocystis sp. PCC 6803); assay: cryo-EM structure of the binary complex, 2.5 Å
T2 construct: Untagged, co-expressed from pPF2434 in E. coli; one copy in the complex; also called Cas7-2x; Cas7_2x
T2 chain: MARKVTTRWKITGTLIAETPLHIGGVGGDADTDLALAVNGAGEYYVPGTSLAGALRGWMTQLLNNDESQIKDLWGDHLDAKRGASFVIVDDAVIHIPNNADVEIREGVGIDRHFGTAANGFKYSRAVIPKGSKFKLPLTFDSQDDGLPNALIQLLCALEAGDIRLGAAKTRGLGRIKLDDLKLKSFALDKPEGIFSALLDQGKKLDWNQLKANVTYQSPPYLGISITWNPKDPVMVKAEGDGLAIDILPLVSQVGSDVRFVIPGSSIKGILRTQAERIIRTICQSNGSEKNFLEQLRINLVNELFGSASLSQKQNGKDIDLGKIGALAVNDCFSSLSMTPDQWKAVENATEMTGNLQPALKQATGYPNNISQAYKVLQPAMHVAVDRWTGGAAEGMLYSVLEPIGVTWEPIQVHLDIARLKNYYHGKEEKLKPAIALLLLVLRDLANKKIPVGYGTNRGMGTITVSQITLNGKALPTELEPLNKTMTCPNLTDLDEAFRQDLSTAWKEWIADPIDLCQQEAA
Procedure: as §1, §2

B1: mature crRNA spacer 1 (ssRNA)
RNA: ACUGAAACUGUAGUAGAACCAAUCGGGGUCGUCAAUA
binding result [1]: binds

binding result [2]: binds
binding result [3]: binds
B2: Csx19 subunit of the Synechocystis sp. PCC 6803 Type III-Dv complex (other)
chain: MPAGGRLMKNLYHYHQYEITLESAVDSCKNHLQAAIGLLYSPQKCELVKLDNSGKLVDSYNRLKFNNLGVFEARFFNLNCELRWVNESNGNGTAVLLSESDITLTGFEKGLQEFITAIDQQYLLWGEPAKHPPNADGWQRLAEARIGKLDIPLDNPLKPKDRVFLTSEEYIAEVDDFGNCAVIDERLIKLEVK
notes: Untagged, co-expressed from pPF2434 in E. coli; one copy in the complex

Binder: B3
binding result [4]: binds
